Here are results for 2 molecules from patent US7847064B2, “Methods and compositions for regulating gene expression in plant cells” (Donald Danforth Plant Science Center, priority 2004, dated 2010).

“Also recorded” adds a separate entry of the source.

Test [1] deals with VGE receptor. Nature of the test: Histochemical GUS staining of treated leaves of T1 transgenic Arabidopsis. In kind it is in vivo, Arabidopsis thaliana. The conditions noted are these: 67 T1 plants, 1:8000 dilution of Intrepid 2F on one leaf, two days, X-Gluc. As to the method:
Analysis of GUS activity—The relative GUS activity in the transgenic Arabidopsis plants described herein was measured by histochemical analysis. In each of sixty-seven (67) T1 transgenic Arabidopsis plants carrying E:GUS, 5G35Sm:RF2a and Cs:VGE, the 1:8000 dilution of Intrepid® 2F described above was applied to one true leaf, while the other leaves in each plant remained untreated. Two-days following the application of the expression-inducing ligand, the treated leaf together with one untreated leaf from the same plant were detached and subjected to GUS staining.
More particularly, the plant leaf tissues mentioned above were submerged in stain solution containing 1 mM of X-Gluc in 100 mM sodium phosphate buffer (pH 7.0), 2 mM K3Fe(CN)6, 2 mM K4Fe(CN)6, 0.1% Triton X-100 and 20% methanol (Petruccelli et al. 2001). In order to evaluate GUS activity, several substrates are available. The most commonly used are 5-bromo-4-chloro-3-indolyl glucuronide (X-Gluc) and 4-methyl-umbelliferyl-glucuronide (MUG). […] For quantification purposes, MUG is preferred, because the umbelliferyl radical emits fluorescence under UV stimulation, thus providing better sensitivity and easy measurement by fluorometry. […]

Test [2] has as its system VGE receptor. Put plainly: Induction of RF2a expression in transgenic Arabidopsis (Western Blot). To be noted: 1:8000 dilution of Intrepid 2F; plants with E:GUS, 5G35Sm:RF2a, Cs:VGE. The class given is in vivo, Arabidopsis thaliana. An excerpt:
Induction of RF2a expression—RF2a expression was induced in the transgenic Arabidopsis plants described herein by application of a 1:8000 dilution of the pesticide Intrepid® 2F (Dow AgroSciences, Indianapolis, Ind.). The active ingredient in Intrepid® 2F pesticide is methoxyfenozide. […] Accordingly, the methoxyfenozide compound served as an expression-inducing ligand, which functioned to enhance expression of the RF2a-encoding sequence. Upon application of the methoxyfenozide compound, RF2a expression was induced, thereby allowing RF2a to interact with the Box II-containing E fragment, which was operably linked to the uidA sequence.
Western Blot analysis—To detect the expression of RF2a in select transgenic lines described above, either treated or untreated with Intrepid® 2F, 40 μg of protein of each sample was separated by 12% SDS-PAGE and blotted onto nitrocellulose membrane. The Arabidopsis lines analyzed by Western Blot included EGaV50, EGaV59, EGaV63, EGaV70, EGaV72, and E:GUS. Rabbit anti-RF2a antibodies were first applied to the nitrocellulose membrane, incubated, and washed. Next, anti-rabbit horseradish peroxidase-conjugated secondary antibodies were applied to the membrane, incubated, and washed. Finally, SuperSignal substrate (Pierce, Rockford, Ill.) was applied to the membrane, incubated, and washed.
A general note: In western blotting, separated proteins are transferred to a membrane and probed.

For test [3], the system named is VGE receptor. Put plainly: Quantitative GUS activity (MUG) in T2 transgenic Arabidopsis. The class given is in vivo, Arabidopsis thaliana. The conditions noted are these: twelve T2 lines, 1:8000 dilution of Intrepid 2F in hydroponic solution, three days. As to the method: Quantitative analysis of GUS activity in methoxyfenozide-treated plants was then conducted. T2 generation transgenic Arabidopsis plants from twelve T1 primary lines were selected on hygromycin selection medium. The lines are individually referred to herein as EGaV-3, EGaV-5, EGaV-17, EGaV-31, EGaV-50, EGaV-51, EGaV-56, EGaV-59, EGaV-63, EGaV-70, EGaV-72, and E:GUS. For each primary line, eighteen 14-day-old T2 plants were used. Nine plants, in three groups, were cultured in MS hydroponic solution containing a 1:8000 dilution of Intrepid 2F®. The remaining nine plants, in three groups, were left untreated and served as controls. After a three-day treatment period, the GUS activity in leaf tissue samples from each plant was quantified.
Each sample of leaf tissue was ground to a powder in liquid nitrogen. Total protein was extracted from each sample by adding 300 μl of extraction buffer. Protein concentration of each sample was quantified using a Dc Protein Assay Kit (Bio-Rad Laboratories, Hercules, Calif.). GUS activity of each sample was quantified using MUG as substrate and a fluorescence spectrometer (Molecular Devices, Sunnyvale, Calif.) (Petruccelli et al., 2001).

For test [4], the system named is Box II, Box IIm1 and Box IIm2 elements. Put plainly: Surface Plasmon Resonance binding (BIAcore 2000). The procedure: To compare the binding affinities of RF2a and RF2b with the Box II element and its mutants, real time Surface Plasmon Resonance (“SPR”) measurements were conducted using a BIAcore 2000 instrument. The binding affinities of RF2a and RF2b to these DNA targets were measured on chips on which biotin labeled-Box II, -Box IIm1 and -Box IIm2 elements were immobilized.
The association and de-association constants were determined using BIAevaluation 3.1 software—using 1:1 binding with a mass transfer model. […] Furthermore, the DNA binding behavior of RF2a and RF2b are quite different from each other. […] The differences in the affinity of RF2a to the Box II element and its mutants, however, are not as dramatic as the differences of RF2b, while the relative order of affinities to the different target elements is the same for both proteins (FIG. 8).

Test [5] has as its system Nicotiana tabacum cv. Xanthi NN. Put plainly: Phenotype of transgenic tobacco plants overexpressing RF2a or RF2a mutants. The class given is in vivo. The conditions noted are these: CaMV 35S promoter driven, T1 generation, greenhouse. An excerpt: (Yin et al., 1997; Petruccelli et al., 2001). […] Fifteen or more independent transgenic tobacco lines were developed with the constructs described below through Agrobacterium-mediated transformation.
Plasmids for Agrobacterium-mediated transformation—The fusion genes described above relating to the plant expression constructs comprising RF2a deletion mutants were released from pMON999-derived plasmids using NotI (blunted) and cloned into the binary vector pGA-E::GUS (Petruccelli et al., 2001) using the blunt HindIII site (downstream of a CaMV 35S promoter sequence). The final plasmids were named pGA-E::GUS/P-35S::ΔP, pGA-E::GUS/P-35S::ΔQ, pGA-E::GUS/P-35S::ΔPΔA and pGA-E::GUS/P-35S::ΔPΔQ. A plasmid encoding full-length RF2a, p35S::RF2a, was also constructed using the methods described herein.
Tobacco transformation—the plasmids described above were introduced into Agrobacterium tumefaciens strain LBA4404 and used for tobacco transformation. Leaf discs from Nicotiana tabacum cv. Xanthi NN were transformed with the various plasmids following the protocol of Horsch et al. (1988). At least 15 independent transgenic lines were produced with each gene construct. Transgenic plants were self-fertilized, and T1 seeds were collected. The T1 seeds were germinated on Murashige and Skoog medium (Murashige and Skoog, 1962) with kanamycin (100 mg/L) selection, and Kan^r seedlings were grown in a greenhouse for observation.
The phenotype caused by 35S::RF2a-ΔPΔA was similar to, but less severe than, the phenotype caused by 35S::RF2a-3Δ. […] (FIG. 19(C)).

Test [6] has as its system transgenic rice and tobacco plants. The conditions noted are these: Yin et al., 1997; Petruccelli et al., 2001; cited from earlier work.
The subject of test [7] is E fragment of the RTBV promoter. Nature of the test: Co-transfection of E::GUS with RF2a and/or RF2b constructs in BY-2 protoplasts. In kind it is cell-based, tobacco. An excerpt: Nevertheless, the E fragment may be further stimulated by co-transfecting the BY-2 protoplasts with constructs that encode the RF2a and/or RF2b transcription factors. In this Example, the E fragment was activated in tobacco BY-2 protoplasts by co-transfection of E::GUS with CsVMV::RF2b, CaMV 35S::RF2a and CaMV 35S::RF2a/CsVMV::RF2b using methods well-known in the art.

Consider `COc1cccc(C(=O)NN(C(=O)c2cc(C)cc(C)c2)C(C)(C)C)c1C` [methoxyfenozide], for which the “plants with constitutive GUS expression pattern in treated leaves” value in the test with VGE receptor [1] was “approximately 70%”. Also, the RF2a expression entry with VGE receptor [2] is listed as “enhance RF2a expression; also recorded: presence of RF2a”. The “induction of GUS expression in relation to untreated control plants, average” value with VGE receptor [3] is reported as 2.1 fold.

B1: RF2a: rice bZIP transcription factor, SEQ ID NO:4 (protein)
chain: MNREKSPIPGDGGDGLPPQATRRAGPPAAAAAAEYDISRMPDFPTRNPGHRRAHSEILSLPEDLDLCAAGGGDGPSLSDENDEELFSMFLDVEKLNSTCGASSEAEAESSSAAAHGARPKHQHSLSMDESMSIKAEELVGASPGTEGMSSAEAKKAVSAVKLAELALVDPKRAKRIWANRQSAARSKERKMRYIAELERKVQTLQTEATTLSAQLALLQRDTSGLTTENSELKLRLQTMEQQVHLQDALNDTLKSEVQRLKVATGQMANGGGMMMNFGGMPHQFGGNQQMFQNNQAMQSMLAAHQLQQLQLHPQAQQQQVLHPQHQQQQPLHPLQAQQLQQAARDLKMKSPMGGQSQWGDGKSGSSGN
modifications: This sequence was artificially derived and/or created by the inventors.
On to B1, for which the “DNA binding behavior (association and dissociation)” value in test [4] (1:1 binding with a mass transfer model) was “bind rapidly to the DNA target and slowly dissociates from the target”. Further, the “binding affinities to the Box II, Box IIm1 and Box IIm2 elements” value in test [4] (compared to RF2b, biotin labeled elements immobilized on chips) is on record as “relatively higher binding affinities”. The “phenotype of transgenic tobacco plants” value in test [5] is listed as “did not exhibit abnormal phenotypes”. Further, in test [6], the “appearance and reproduction of overexpressing plants” value is “normal in appearance and reproduction”. In addition, the “activation of the E fragment by over-expression” value in test [7] was “activated above a strong background expression”.
